Source: patent US6855815 (Amgen, dated 2005)

How the values were obtained:
[1] = target: T1, human cellular inhibitor of apoptosis protein 1 (c-IAP1) (human, UniProt Q13490 1-618); assay: yeast two-hybrid
T1 construct: Tested in a yeast two-hybrid system; also called h c-IAP1
Excerpt: (§1) A yeast two-hybrid system was used to determine how c-IAP1 and -2 interact with TNF-R2 and/or TRAFs. The following results were obtained indistinguishably for c-IAP1 and c-IAP2. […] However, a direct interaction could be detected between c-IAP1 and TRAF2. […] Consistently, c-IAP1 also interacted with TRAF1. […] Thus c-IAP1 and TNF-R2 bind to non-overlapping docking sites within the TRAF domain of TRAF2. […] Similarly, combinations of two of the three BIR motifs e.g. amino acid residues 46–99 and 204–249 of c-IAP1 and 29–82 and 189–234 of c-IAP2, separated by IAP1 derived intervening sequences of varying lengths are assayed for TRAF1 and TRAF2 binding. […] The RING finger domain of c-IAP1/2 (amino acids 571–618 of c-IAP1 and 557–604 of c-IAP2) is not required for interaction with TRAFs, but rather mediates subsequent steps in the c-IAP1/2 signaling cascade. Similarly, a variety of c-IAP1 derived N-terminal leader sequences fused to the c-IAP1 RING finger domain are used to assay signal transduction mediation.

[2] = target: T2, human cellular inhibitor of apoptosis protein 2 (c-IAP2) (human, UniProt Q13489 1-604); assay: yeast two-hybrid
T2 construct: The two-hybrid fusion partners are not described; also called h c-IAP2
Excerpt: as §1

[3] = target: T3, c-IAP1 N-terminally tagged with a FLAG epitope peptide (Homo sapiens (Human), UniProt Q13490 1-618); assay: co-immunoprecipitation from transfected 293 cells (anti-TNF-R2 IP, anti-FLAG Western)
T3 construct: Expressed in human embryonic 293 cells from a pRK vector (CMV promoter); also called FLAG-tagged c-IAP1
Protocol: A transfection based co-immunoprecipitation assay was used to investigate how c-IAP1 interacts with the complex of TNF-R2 and TRAFs. In this system c-IAP1 was N-terminally tagged with a FLAG epitope peptide and expressed in human embryonic 293 cells under the control of a constitutive CMV promotor (pRK vector). The c-IAP1 expression vector was transiently co-transfected into 293 cells with expression vectors for TNF-R2 and TRAFs. After 24–36 h, the cells were harvested and extracts immunoprecipitated with anti-TNF-R2 antibodies, followed by Western analysis with anti-FLAG antibodies. […] Thus, c-IAP1 is a component of the TNF-R2 (CD40)/TRAF signaling complex.

Measured: binding result

T2 sequence (Q13489 whole entry, the tested form may be a part): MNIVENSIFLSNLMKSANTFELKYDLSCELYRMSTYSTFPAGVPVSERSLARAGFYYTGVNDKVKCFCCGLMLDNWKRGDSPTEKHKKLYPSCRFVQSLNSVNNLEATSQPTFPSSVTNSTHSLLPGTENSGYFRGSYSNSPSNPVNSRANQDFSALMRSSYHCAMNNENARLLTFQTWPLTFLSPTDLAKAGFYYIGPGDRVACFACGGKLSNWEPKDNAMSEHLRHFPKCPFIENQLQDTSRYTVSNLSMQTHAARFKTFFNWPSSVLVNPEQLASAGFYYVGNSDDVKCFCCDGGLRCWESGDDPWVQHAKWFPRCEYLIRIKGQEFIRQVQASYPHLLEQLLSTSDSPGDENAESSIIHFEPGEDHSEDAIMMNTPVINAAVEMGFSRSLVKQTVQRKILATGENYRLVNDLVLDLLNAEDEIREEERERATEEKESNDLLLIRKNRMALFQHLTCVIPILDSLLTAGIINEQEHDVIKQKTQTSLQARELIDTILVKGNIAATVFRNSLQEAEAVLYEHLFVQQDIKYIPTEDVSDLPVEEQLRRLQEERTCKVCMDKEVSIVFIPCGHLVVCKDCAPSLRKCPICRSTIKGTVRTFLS
T1 sequence (Q13490 whole entry): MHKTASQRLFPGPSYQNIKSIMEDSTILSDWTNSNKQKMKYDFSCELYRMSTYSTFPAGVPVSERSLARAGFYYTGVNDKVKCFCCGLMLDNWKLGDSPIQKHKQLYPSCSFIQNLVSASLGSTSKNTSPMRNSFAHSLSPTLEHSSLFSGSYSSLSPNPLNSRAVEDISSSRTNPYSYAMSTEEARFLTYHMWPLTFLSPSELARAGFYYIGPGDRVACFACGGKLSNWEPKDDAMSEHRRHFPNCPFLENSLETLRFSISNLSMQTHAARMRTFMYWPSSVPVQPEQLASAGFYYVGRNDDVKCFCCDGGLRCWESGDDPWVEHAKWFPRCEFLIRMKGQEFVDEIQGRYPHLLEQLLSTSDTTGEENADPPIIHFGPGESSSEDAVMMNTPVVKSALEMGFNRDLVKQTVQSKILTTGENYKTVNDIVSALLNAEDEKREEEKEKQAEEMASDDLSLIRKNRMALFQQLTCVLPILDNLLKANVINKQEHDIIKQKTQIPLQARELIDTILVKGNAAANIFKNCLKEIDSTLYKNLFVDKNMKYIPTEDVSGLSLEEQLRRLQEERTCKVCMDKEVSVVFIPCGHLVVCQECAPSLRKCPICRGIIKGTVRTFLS
T3 sequence (Q13490 whole entry): as above

B1: TNF-R2 (receptor, UniProt P20333 288-461, looked up)
chain: KKKPLCLQREAKVPHLPADKARGTQGPEQQHLLITAPSSSSSSLESSASALDRRAPTRNQPQAPGVEASGAGEARASTGSSDSSPGGHGTQVNVTCIVNVCSSSDHSSQCSSQASSTMGDTDSSPSESPKDEQVPFSKEECAFRSQLETPETLLGSTEEKPLPLGVPDAGMKPS
notes: In the co-immunoprecipitation it was expressed from a vector in 293 cells
no binding: [1] | [2] | [3]
